In patent US20220298212A1 (Molecular Partners, published 2022):
One block for each binder: values may come before it.

Columns and labels:
[1] = target: T1, cell membrane-bound human 4-1BB (endogenous, on ionomycin/PMA stimulated CCRF-CEM cells or primary CD8+ T … (human, UniProt Q07011 24-255)); assay: flow cytometry on PMA/ionomycin stimulated CEM cells, anti-penta-His Alexa Fluor-488 detection
T1 construct: also called cell membrane-expressed human 4-1 BB; 4-1BB on CEM cells
Method: Assay setup: Ankyrin repeat protein binding to cell membrane-bound human 4-1 BB on cells was measured by flow cytometry using the T lymphoblast cell line CCRF-CEM (ATCC® CCL-119™) stimulated with ionomcycin/PMA (phorbol 12-myristate 13-acetate) to express 4-1 BB. CEM cells cultured in RPMI medium supplemented with 10% (v/v) FBS+1% PenStrep were harvested and stimulated overnight in 96-well U-bottom plates using the same medium plus PMA (10 ng/ml) and ionomycin (500 ng/ml). […] Stimulated CEM cells were harvested, then 30,000 cells were incubated with increasing concentrations of His-tagged ankyrin repeat proteins in FACS buffer (PBS+2% (v/v) FBS+0.1% sodium azide) for 30 minutes on ice. […] After washing with PBS, cells were stained with Live/Dead Aqua dye (Thermo Fisher, No. L34957) and analyzed using a BD FACS Canto II or AttuneNxT cytometer.
The multivalent ankyrin repeat proteins were tested, together with binding proteins comprising only one corresponding 4-1 BB-specific ankyrin repeat domain (with our without a linked localizer), for binding to PMA/ionomycin stimulated CEM cells.

[2] = target: T2, biotinylated human 4-1BB (recombinant Fc fusion protein of the extracellular domain of human 4-1BB) (human, UniProt Q07011 24-186, biotinylated (site not stated)); assay: SPR; accurate fit not possible due to slow off-rate
T2 construct: Bought from BPS Bioscience; tie to the Fc fusion is by the Materials paragraph; also called h4-1BB; CD137; not shown: Fc part of the purchased fusion (BPS Bioscience)

T1 sequence (Q07011 24-255 limits assumed): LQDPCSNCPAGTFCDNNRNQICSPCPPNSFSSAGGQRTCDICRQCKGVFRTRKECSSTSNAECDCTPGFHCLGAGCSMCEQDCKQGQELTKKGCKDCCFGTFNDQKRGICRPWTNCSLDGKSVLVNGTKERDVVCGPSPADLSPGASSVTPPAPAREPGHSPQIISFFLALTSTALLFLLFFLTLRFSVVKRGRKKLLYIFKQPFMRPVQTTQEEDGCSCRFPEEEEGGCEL

EC50 (read off the curve) [1]: ~8 nM
B1: DARPin® protein #52 (designed binder)
chain: GSDLGDKLLHAAYYGQDDEVRILLAAGADVNAKDTQGLTPLHLAAAIGHLEIVEVLLKAGADVNAKDAYGETPLHLVASRGHLEIVEVLLKAGADVNAQDYSGRTPADLAAEYGHEDIAEVLQKLNGSPTPTPTTPTPTPTTPTPTPTGSDLGDKLLHAAYYGQDDEVRILLAAGADVNAKDTQGLTPLHLAAAIGHLEIVEVLLKAGADVNAKDAYGETPLHLVASRGHLEIVEVLLKAGADVNAQDYSGRTPADLAAEYGHEDIAEVLQKLN
notes: not shown: TAA-specific ankyrin repeat domain (localizer)

Kd [2]: < 0.02 nM
B2: DARPin® protein #51 (designed binder)
chain: GSDLGQKLLKAAQEGQDDEVRELLKAGADVNAKDLRGITPLHVAAWQGHLEIVEVLLKAGADVNAKDSKGETPLHLAAFRGHLEIVEVLLKAGADVNAQDQQGETPADLAALAGHVDIAEVLQKLNGSPTPTPTTPTPTPTTPTPTPTGSDLGQKLLKAAQEGQDDEVRELLKAGADVNAKDLRGITPLHVAAWQGHLEIVEVLLKAGADVNAKDSKGETPLHLAAFRGHLEIVEVLLKAGADVNAQDQQGETPADLAALAGHVDIAEVLQKLN
notes: as for B1

EC50 (read off the curve) [1]: ~7 nM
B3: DARPin® protein #55 (designed binder)
chain: GSDLGDKLLHAAYYGQDDEVRILLAAGADVNAKDTQGLTPLHLAAAIGHLEIVEVLLKAGADVNAKDAYGETPLHLVASRGHLEIVEVLLKAGADVNAQDYSGRTPADLAAEYGHEDIAEVLQKLNGSPTPTPTTPTPTPTTPTPTPTGSDLGDKLLHAAYYGQDDEVRILLAAGADVNAKDTQGLTPLHLAAAIGHLEIVEVLLKAGADVNAKDAYGETPLHLVASRGHLEIVEVLLKAGADVNAQDYSGRTPADLAAEYGHEDIAEVLQKLNGSPTPTPTTPTPTPTTPTPTPTGSDLGDKLLHAAYYGQDDEVRILLAAGADVNAKDTQGLTPLHLAAAIGHLEIVEVLLKAGADVNAKDAYGETPLHLVASRGHLEIVEVLLKAGADVNAQDYSGRTPADLAAEYGHEDIAEVLQKLN
notes: as for B1
